Assay results from patent publication US20230167182A1 (BIOSION, published 2023).
Changes are numbered by the printed parent chain.

B1: Tocilizumab (antibody, human IgG1, kappa, V domains shown)
VH: QVQLQESGPGLVRPSQTLSLTCTVSGYSITSDHAWSWVRQPPGRGLEWIGYISYSGITTYNPSLKSRVTMLRDTSKNQFSLRLSSVTAADTAVYYCARSLARTTAMDYWGQGSLVTVSS
VL: DIQMTQSPSSLSASVGDRVTITCRASQDISSYLNWYQQKPGKAPKLLIYYTSRLHSGVPSRFSGSGSGTDFTFTISSLQPEDIATYYCQQGNTLPYTFGQGTKVEIKR
notes: In house made; also called benchmark; Actemra
B2: humanized antibody hu1H7-V5 (antibody, human IgG1, kappa, V domains shown)
VH: QVQLVQSGAEVKKPGASVKVSCKASGYTFTNYWMHWVRQAPGQGLEWIGEINPTNGRTNYNENFKSRVTLTVDTSTSTVYMELSSLRSEDTAVYYCARLNTHYVFDSWGQGTLVTVSS
VL: EIVLTQSPGTLSLSPGERATLSCSVSSSISSNYLHWYQQKPGLSPRLLISRTSTLASGIPARFSGSGSGTEYTLTISRMQSEDFAVYYCQQGSGIPFTFGQGTKLEIKR
notes: Human IgG1 / kappa
B3: mouse anti-IL6R monoclonal antibody 1H7 (antibody, V domains shown)
VH: QVQLQQPGTELVKPGASVKLSCKASGYTFTNYWMHWVKQRPGQGLDWIGEINPTNGRTNYNENFKSKATLTVDKSSSTAYMQLSSLTSEDSAVYYCARLNTHYVFDSWGQGTTLTLSS
VL: EIVLTQSPTTLAASPGEKITFTCSVSSSISSNYLHWYQQKPGFSPKLLISRTSTLASGVPARFSGSGSGTSYSLTIGTMEAEDVATYYCQQGSGIPFTFGSGTKLELK
notes: Mouse hybridoma mAb
B4: mouse anti-IL6R monoclonal antibody 1A3 (antibody, V domains shown)
VH: QVQLQQPGAELVKPGASVKLSCKASGYTFTSYWMHWVKQRPAQGLEWIGEINPSNGRTNFNEKFKTKATLTVDKSSNTAYMQLSSLTSEDSAVYSCLRLNTHYVFDYWGQGTTLTVSS
VL: B3 VL with L11M, F21I, V25A, T54N, A61T, E82G, L107I
notes: Mouse hybridoma mAb purified on Protein A
B5: mouse anti-IL6R monoclonal antibody 3C2 (antibody, V domains shown)
VH: B3 VH with N31T, M34I, D46E, T54S, N63H, Y80S, E89A, L116V
VL: B3 VL with L11M, F21I, V25A, S50Y, T54N, A61T, R62H, L107I
notes: Mouse hybridoma mAb
B6: mouse anti-IL6R monoclonal antibody 1B5 (antibody, V domains shown)
VH: B3 VH with T9A, N31S, D46E, T54S, S107Y, L116V
VL: B3 VL with T10I, S50Y, T54N, L107I
notes: Mouse hybridoma mAb
B7: mouse anti-IL6R monoclonal antibody 1G1 (antibody, V domains shown)
VH: B3 VH with T9A, N31S, Q39V, D46E, N63D, D73E, K74S, L83F, S107Y, L116V
VL: B3 VL with T10I, S50Y, T54N, L107I
notes: Mouse hybridoma mAb
B8: Chimeric 1H7 (antibody, human IgG1, kappa, V domains shown)
VH: B3 VH
VL: EIVLTQSPTTLAASPGEKITFTCSVSSSISSNYLHWYQQKPGFSPKLLISRTSTLASGVPARFSGSGSGTSYSLTIGTMEAEDVATYYCQQGSGIPFTFGSGTKLELKR
notes: Mouse variable regions on human IgG1 / human kappa constant regions; also called chimeric antibody 1H7

Experiments:
[1] = molecular target: T1, human IL6R-Fc protein (human, biotin-labeled in the ELISAs (sites not given)); test: capture ELISA: antibody captured on anti-IgG F(ab')2 coated plate, then biotin-labeled human IL6R-Fc, streptavidin-HRP
T1 construct: In house made; also called biotin-labeled human IL6R-Fc protein
Procedure: For the capture ELISA, 96-well micro plates were coated with 2 μg/ml AffiniPure Goat Anti-Mouse IgG, F(ab′)₂ fragment specific (Jackson ImmunoResearch Laboratories, Inc., Cat #115-005-072) in PBS, 100 μl/well, and incubated for 2 hours at 37° C. Plates were washed once with wash buffer (PBS+0.05% v/v Tween-20, PBST) and then blocked with 200 μl/well blocking buffer (5% w/v non-fatty milk in PBST) overnight at 4° C. […] Plates containing captured anti-IL6R antibodies were incubated with biotin-labeled human IL6R-Fc protein (prepared in house, SEQ ID NO: 43, 39.5 ng/ml in 2.5% w/v non-fatty milk in PBST, 100 μl/well) for 40 minutes at 37° C., washed 4 times, and incubated with streptavidin conjugated HRP (1:10000 dilution in PBST, Jackson ImmunoResearch Laboratories, Inc., Cat #016-030-084, 100 μl/well) for 40 minutes at 37° C. After a final wash, plates were incubated with 100 μl/well ELISA substrate TMB (InnoReagents, Cat #TMB-S-002). The reaction was stopped 3-10 minutes later at room temperature with 50 μl/well 1M H₂SO₄, and the absorbance of each well was read on a microplate reader using dual wavelength mode at 450 nm for TMB and 630 nm as the reference wavelength. Then the OD (450-630) values were plotted against antibody concentration. Data was analyzed using Graphpad Prism software and EC₅₀ values were reported.
For the capture ELISA, AffiniPure Goat Anti-Human IgG, F(ab′)₂ fragment specific (Jackson Immuno Research, Cat #109-005-097) was used instead of AffiniPure Goat Anti-Mouse IgG, F(ab′)₂ fragment specific, 100 μl/well.
Target sequence in this assay (chain, as listed by the source limits assumed): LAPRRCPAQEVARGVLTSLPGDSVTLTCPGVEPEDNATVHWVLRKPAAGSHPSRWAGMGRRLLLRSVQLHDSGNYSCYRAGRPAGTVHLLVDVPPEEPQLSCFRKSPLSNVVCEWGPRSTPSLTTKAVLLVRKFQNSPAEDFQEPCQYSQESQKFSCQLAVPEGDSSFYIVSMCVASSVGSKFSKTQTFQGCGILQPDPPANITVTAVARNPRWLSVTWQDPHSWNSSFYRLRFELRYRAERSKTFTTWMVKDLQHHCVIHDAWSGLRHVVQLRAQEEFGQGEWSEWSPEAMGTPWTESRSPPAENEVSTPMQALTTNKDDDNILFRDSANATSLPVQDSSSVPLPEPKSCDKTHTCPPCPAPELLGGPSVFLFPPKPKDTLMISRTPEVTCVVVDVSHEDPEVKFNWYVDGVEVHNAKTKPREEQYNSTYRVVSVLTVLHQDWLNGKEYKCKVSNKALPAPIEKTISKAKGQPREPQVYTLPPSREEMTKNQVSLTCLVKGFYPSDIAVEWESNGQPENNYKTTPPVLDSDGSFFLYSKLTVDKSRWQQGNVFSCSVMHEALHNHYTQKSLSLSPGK

[2] = molecular target: T1, human IL6R-Fc protein; test: ligand blocking ELISA: antibody pre-incubated with biotin-labeled human IL6R-Fc, added to plate-coated human IL6 (blocked ligand: human IL6)
Procedure: (§1) The next day, anti-IL6R antibodies or controls were diluted with biotin labeled human IL6R-Fc protein (prepared in house, SEQ ID NO: 43, 39.5 ng/ml in 2.5% w/v non-fatty milk in PBST), starting at 100 nM with a 4-fold serial dilution, and incubated at room temperature for 40 minutes. […] Plates were washed for 4 times using wash buffer, and added and incubated with 100 μl/well of streptavidin conjugated HRP (1:10000 dilution in PBST buffer, Jackson ImmunoResearch Laboratories, Inc., Cat #016-030-084) for 40 minutes at 37° C. Plates were washed again using wash buffer. Finally, TMB was added and the reaction was stopped using 1M H₂SO₄. The absorbance was read on a microplate reader using dual wavelength mode with 450 nm for TMB and 630 nm as the reference wavelength, and then the OD (450-630) values were plotted against antibody concentration. Data was analyzed using Graphpad Prism software and IC₅₀ values were reported.

[3] = molecular target: T1, human IL6R-Fc protein; test: as above; remark: listed apart in the source
Procedure: (§2) ELISA plates were washed once with wash buffer (PBS+0.05% v/v Tween-20, PBST) and then blocked with 200 μl/well blocking buffer (5% w/v non-fatty milk in PBST) overnight at 4° C.
as §1
Target sequence in this assay (chain, as listed by the source limits assumed): as above

[4] = molecular target: T1, human IL6R-Fc protein; test: benchmark blocking ELISA: antibody pre-incubated with biotin-labeled human IL6R-Fc, added to plate-coated Tocilizumab (competitor: Tocilizumab)
Procedure: as §2
Target sequence in this assay (chain, as listed by the source limits assumed): as above
The next day, the anti-IL6R antibodies of the disclosure or controls were diluted with biotin labeled human IL6R-Fc protein (SEQ ID NO: 43, 13.6 ng/ml in 2.5% w/v non-fatty milk in PBST), starting at 100 nM with a 5-fold serial dilution, and incubated at room temperature for 40 minutes. […] After incubation at 37° C. for 40 minutes, plates were washed 4 times using wash buffer. Then streptavidin conjugated HRP was added, and the plates were incubated for 40 minutes at 37° C. The plates were finally washed using wash buffer, and added with TMB. The reaction was stopped using 1M […], and the absorbance was read on a microplate reader using dual wavelength mode with 450 nm for TMB and 630 nm as the reference wavelength. The OD (450-630) values were plotted against antibody concentration. Data was analyzed using Graphpad Prism software and IC₅₀ values were reported.

Row | Binder | EC50 [1] [nM] | IC50 [2] [nM] | IC50 [3] [nM] | IC50 [4] [nM]
1 | B1 | 0.191 | 2.51 | 1.03 | 1.41
2 | B2 |  |  | 0.223 | 
3 | B3 | 0.0553 |  | 0.189 | 
4 | B4 |  |  |  | 0.166
5 | B5 |  | 0.704 |  | 
6 | B6 | 0.0627 |  |  | 0.162
7 | B7 |  | ~1.44 |  | 
8 | B8 | 0.078 |  | 0.161 | 
